Patent US20250304927A1, “PRO-PEPTIDE VARIANTS FOR MODULATING ACTIVITY OF TRANSGLUTAMINASES” (CURIE CO. INC., priority 2022, published 2025)
Where no end group is shown, it is not given here.

T1: thermostable variant of Streptomyces mobaraensis transglutaminase (Streptomyces mobaraensis, UniProt P81453 79-407)
T1 sequence: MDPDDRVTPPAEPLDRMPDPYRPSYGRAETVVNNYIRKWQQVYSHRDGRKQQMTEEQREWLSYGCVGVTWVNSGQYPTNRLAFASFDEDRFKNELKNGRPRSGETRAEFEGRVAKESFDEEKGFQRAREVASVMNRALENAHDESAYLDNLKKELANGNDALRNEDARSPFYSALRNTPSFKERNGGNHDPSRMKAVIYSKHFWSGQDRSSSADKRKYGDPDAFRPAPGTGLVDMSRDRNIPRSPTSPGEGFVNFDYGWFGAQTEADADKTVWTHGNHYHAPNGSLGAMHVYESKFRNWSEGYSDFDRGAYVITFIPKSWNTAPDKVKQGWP


Experiments:
[1] = molecular target: T2, thermostable mature transglutaminase variant (SEQ ID NO: 3) (Streptomyces mobaraensis, UniProt P81453); format: biochemical; settings: increase in transglutaminase activity relative to wild-type pro-peptide, casein assay; Method A
T2 construct: made in house; host or cells: E. coli (lysate)
Source text: Method A. A bicistronic expression vector encoding the wild-type pro-domain of transglutaminase (SEQ ID NO: 2) and a thermostable mature transglutaminase variant (SEQ ID NO: 3) as separate polypeptides was cloned as described in PCT/US20/49226 (WO2021/178001 A1). The vector was used as a template for synthesis of a random mutagenesis library targeting the pro-domain coding sequence to create pro-domain peptide variants.
Method A. Plasmid libraries containing mature transglutaminase and variant pro-domain peptides were plated on Luria-Bertani (LB) agar plates containing 50 μg/mL of kanamycin. After incubation for at least 16 hours at 37° C., colonies were picked and inoculated into 1 mL of LB broth with 50 μg/mL kanamycin in one well of a 96 deep well culture plate. The plate was covered with a breathable seal and incubated overnight at 37° C. with 400 rpm of shaking. 10 μL of the seed culture was used to inoculate 1 mL of media in a 96 deep well culture plate for expression. The expression plate was allowed to grow for 6-8 hours at 30° C. Expression was then induced by adding isopropyl beta-D-1-thiogalactopyranoside (IPTG) to a final concentration of 1 mM and the temperature was reduced to 20° C. while growth continued for an additional 15 hours. Cells were harvested by centrifugation at 4000 rcf for 30 minutes and pellets were frozen at −80° C.
A secondary screen was performed to determine initial rate of transglutaminase in the presence of the pro-peptide variants using transglutaminase-catalyzed labeling of casein with dansylcadaverine (e.g., a commercially available kit such as the Transglutaminase Fluorogenic Activity Assay Kit, T036, Zedira, Germany). Transglutaminase activity was monitored by measuring the fluorescence (excitation wavelength 332 nm; emission wavelength 500 nm) using a BioTek Synergy H1 microplate reader. Transglutaminase-catalyzed covalent coupling (crosslinking) of monodansylcadaverine with N,N-dimethylcasein produces a product that causes a shift in intensity and wavelength of fluorescence of the dansyl group now linked to the casein. The relative transglutaminase activity is shown by increase of fluorescence intensity over time. The data were normalized for transglutaminase expression levels in E. coli lysate as described above. Pro-domain variants were identified based on their ability to alter the activity of the mature transglutaminase enzyme. […]
It is believed that these pro-peptide variants have reduced binding affinity with mature mTgase.

[2] = molecular target: T1, thermostable variant of Streptomyces …; assay: cell-based or functional assay
[3] = molecular target: T1, thermostable variant of Streptomyces …; assay: cell-based or functional assay; remark: listed apart in the source

Row | Molecule | Reduction in binding affinity of inhibitory peptide relative to WT [2] [fold] | Improvement in pH responsiveness of inhibitory peptide relative to WT [3] [fold] | Reduction in binding affinity of inhibitory peptide relative to WT [1] [fold]
1 | MDNGAGEETKSYAETYRETADDVANINALNESAPAASSAGPSFRAP [Variant L18E] | – | – | >1.2
2 | MDNGAGEETDSYAETYRLTADDVANINALNESAPAASSAGPSFRAP [Variant K10D] | – | – | >1.2
3 | MDNGAGEETKSYACTYRLTADDVANINALNESAPAASSAGPSFRAP [Variant E14C] | – | – | >1.2
4 | MDNGAGEETKSYANTYRLTADDVANINALNESAPAASSAGPSFRAP [Variant E14N] | – | – | >1.2
5 | MDNGAGEEQKSYAETYRLTADDVANINALNESAPAASSAGPSFRAP [Variant T9Q] | – | – | >1.2
6 | MDNGAGEETKSYARTYRLTADDVANINALNESAPAASSAGPSFRAP [Variant E14R] | – | – | >1.2
7 | MDNGAGEETKKYAETYRLTADDVANINALNESAPAASSAGPSFRAP [Variant S11K] | – | – | >1.2
8 | MDNGAGEETKS [ΔY12-P46] | – | – | >1.2
9 | MDNGAGEETGSYAETYRLTADDVANINALNESAPAASSAGPSFRAP [Variant K10G] | – | – | >1.2
10 | MDNGAGEETKSYAETYRLTADDVANENALNESAPAASSAGPSFRAP [Variant I26E] | – | – | >1.2
11 | MDNGAGEETKSPAETYRLTADDVANINALNESAPAASSAGPSFRAP [Variant Y12P] | – | – | >1.2
12 | MDNGAGEYTKSYAETYRLTADDVANINALNESAPAASSAGPSFRAP [Variant E8Y] | – | – | >1.2
13 | MDNGAGEETCSYAETYRLTADDVANINALNESAPAASSAGPSFRAP [Variant K10C] | – | – | >1.2
14 | MDNGAGEETKSYAATYRLTADDVANINALNESAPAASSAGPSFRAP [Variant E14A] | – | – | >1.2
15 | MDNGAGEETKSYAETYRWTADDVANINALNESAPAASSAGPSFRAP [Variant L18W] | – | – | >1.2
16 | MDNGAGEETKSYAETYR [ΔL18-P46] | – | – | >1.2
17 | MDNGAGEETKSYAETYRLTADDVANANALNESAPAASSAGPSFRAP [Variant I26A] | – | – | >1.2

The next lines start with results.

Row | Reduction in binding affinity of inhibitory peptide relative to WT [2] [fold] | Improvement in pH responsiveness of inhibitory peptide relative to WT [3] [fold] | Molecule | Reduction in binding affinity of inhibitory peptide relative to WT [1] [fold]
18 | > 1.2 | > 1.2 | MDNGAGEETRSYAETYRLTADDVANINALNESAPAASSAGPSFRAP [pro-peptide variant K10R] | –
19 | > 1.2 | > 1.2 | MDNGAGEETKSYAVTYRLTADDVANINALNESAPAASSAGPSFRAP [pro-peptide variant E14V] | –
20 | > 1.2 | > 5 | MDNGAGEETKSYAGTYRLTADDVANINALNESAPAASSAGPSFRAP [pro-peptide variant E14G] | –
21 | > 1.2 | > 1.2 | MDNGAGEETKSGAETYRLTADDVANINALNESAPAASSAGPSFRAP [pro-peptide variant Y12G] | –
22 | > 1.2 | > 1.2 | MDNGAGEETKKYAETYRLTADDVANINALNESAPAASSAGPSFRAP [pro-peptide variant S11K] | –
23 | > 5 | > 1.2 | MDNGAGEETKSYAETYRLTALDVANINALNESAPAASSAGPSFRAP [pro-peptide variant D21L] | –
24 | > 1.2 | > 1.2 | MDNGAGEETKSYARTYRLTADDVANINALNESAPAASSAGPSFRAP [pro-peptide variant E14R] | –
25 | > 1.2 | > 1.2 | MDNGAGEETKSNAETYRLTADDVANINALNESAPAASSAGPSFRAP [pro-peptide variant Y12N] | –
26 | > 1.2 | > 1.2 | MDNGAGEETKLYAETYRLTADDVANINALNESAPAASSAGPSFRAP [pro-peptide variant S11L] | –
27 | > 1.2 | > 1.2 | MDNGAGEETKSYATTYRLTADDVANINALNESAPAASSAGPSFRAP [pro-peptide variant E14T] | –
28 | > 1.2 | > 1.2 | MDNGAGEETKSTAETYRLTADDVANINALNESAPAASSAGPSFRAP [pro-peptide variant Y12T] | –
29 | > 1.2 | > 1.2 | MDNGAGEETKSYAETYRLTADDVANYNALNESAPAASSAGPSFRAP [pro-peptide variant I26Y] | –
30 | > 1.2 | > 1.2 | MDNGAGEETKSYAETYRWTADDVANINALNESAPAASSAGPSFRAP [pro-peptide variant L18W] | –
31 | > 1.2 | > 5 | MDNGAGEETKSYANTYRLTADDVANINALNESAPAASSAGPSFRAP [pro-peptide variant E14N] | –
32 | > 1.2 | > 1.2 | MDNGAGEETKSVAETYRLTADDVANINALNESAPAASSAGPSFRAP [pro-peptide variant Y12V] | –
33 | > 1.2 | > 1.2 | MDNGAGEETKSYAETYRLTADGVANINALNESAPAASSAGPSFRAP [pro-peptide variant D22G] | –
34 | > 5 | > 1.2 | MDNGAGEETKSYAETYRLTARDVANINALNESAPAASSAGPSFRAP [pro-peptide variant D21R] | –
35 | > 1.2 | > 1.2 | MDNGAGEETKSYAETYRKTADDVANINALNESAPAASSAGPSFRAP [pro-peptide variant L18K] | –
36 | > 1.2 | > 1.2 | MDNGAGEETKSLAETYRLTADDVANINALNESAPAASSAGPSFRAP [pro-peptide variant Y12L] | –
37 | > 1.2 | > 5 | MDNGAGEETKSYAETYRLTADDVHNINALNESAPAASSAGPSFRAP [pro-peptide variant A24H] | –
38 | > 1.2 | > 1.2 | MDNGAGEETKDYAETYRLTADDVANINALNESAPAASSAGPSFRAP [pro-peptide variant S11D] | –
